In patent US20250076311A1 (Chugai, published 2025):

T1: human FcγRIIaH extracellular domain, His-tagged (human, UniProt P12318 34-217)
T1 construct: also called human FcgRIIaH; FcγRIIa type H
T1 sequence: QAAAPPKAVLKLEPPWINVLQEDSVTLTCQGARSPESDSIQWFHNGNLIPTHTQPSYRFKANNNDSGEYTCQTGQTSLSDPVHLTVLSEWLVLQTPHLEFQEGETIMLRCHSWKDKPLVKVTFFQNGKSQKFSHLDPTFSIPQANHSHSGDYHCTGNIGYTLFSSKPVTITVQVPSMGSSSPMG

T2: human FcγRIIaR extracellular domain, His-tagged (human, UniProt P12318 34-217)
T2 construct: also called human FcgRIIaR; FcγRIIa type R
T2 chain: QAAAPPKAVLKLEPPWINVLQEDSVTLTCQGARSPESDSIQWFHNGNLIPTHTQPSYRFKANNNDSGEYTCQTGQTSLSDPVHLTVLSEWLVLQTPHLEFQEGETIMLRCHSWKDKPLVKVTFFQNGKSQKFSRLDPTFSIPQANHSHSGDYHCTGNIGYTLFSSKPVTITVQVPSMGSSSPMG

T3: human FcγRIIb extracellular domain, His-tagged (human, UniProt P31994 43-217)
T3 construct: also called human FcgRIIb
T3 sequence: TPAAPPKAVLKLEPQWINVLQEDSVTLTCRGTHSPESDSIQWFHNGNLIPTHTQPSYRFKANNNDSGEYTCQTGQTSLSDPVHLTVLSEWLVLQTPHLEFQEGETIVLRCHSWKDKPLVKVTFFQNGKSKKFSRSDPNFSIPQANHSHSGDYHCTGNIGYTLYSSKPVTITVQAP


Legend:
Test in all cases: SPR (Biacore), 25C, FcgR bound per antibody captured
[1] = target: T1, human FcγRIIaH extracellular domain, …
[2] = target: T2, human FcγRIIaR extracellular domain, …
[3] = target: T4, human FcγRIIIaV extracellular domain, His-tagged (human, UniProt P08637 17-208)
T4 construct: also called human FcgRIIIaV

[4] = target: T3, human FcγRIIb extracellular domain, …

T4 sequence (P08637 17-208 F176V): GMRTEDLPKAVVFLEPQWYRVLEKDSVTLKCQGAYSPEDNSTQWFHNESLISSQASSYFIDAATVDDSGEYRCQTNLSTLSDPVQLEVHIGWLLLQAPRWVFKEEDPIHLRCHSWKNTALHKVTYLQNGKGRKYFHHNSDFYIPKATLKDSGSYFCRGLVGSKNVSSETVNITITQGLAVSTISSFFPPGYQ

Binding to human FcgRs (parent B3 = 100) [1] | Binding to human FcgRs (parent B3 = 100) [2] | Binding to human FcgRs (parent B3 = 100) [3] | Binding to human FcgRs (parent B3 = 100) [4] | Binder
21 | 2 | 1 | – | GpH7-B3 P238E / GpL16-k0 (antibody, human IgG1, kappa, also called B3 variant P238E) heavy: not shown light: DIVMTQSPLSLPVTPGEPASISCQASESLVHSNRNTYLHWYLQKPGQSPQLLIYKVSNRFSGVPDRFSGSGSGTDFTLKISRVEAEDVGVYYCSQNTHVPPTFGQGTKVEIERTVAAPSVFIFPPSDEQLKSGTASVVCLLNNFYPREAKVQWKVDNALQSGNSQESVTEQDSKDSTYSLSSTLTLSKADYEKHKVYACEVTHQGLSSPVTKSFNRGEC
74 | 0 | 0 | 95 | GpH7-B3 G237D / GpL16-k0 (antibody, human IgG1, kappa, also called B3 variant G237D) heavy: not shown light: DIVMTQSPLSLPVTPGEPASISCQASESLVHSNRNTYLHWYLQKPGQSPQLLIYKVSNRFSGVPDRFSGSGSGTDFTLKISRVEAEDVGVYYCSQNTHVPPTFGQGTKVEIERTVAAPSVFIFPPSDEQLKSGTASVVCLLNNFYPREAKVQWKVDNALQSGNSQESVTEQDSKDSTYSLSSTLTLSKADYEKHKVYACEVTHQGLSSPVTKSFNRGEC
93 | 13 | 0 | – | GpH7-B3 N325L / GpL16-k0 (antibody, human IgG1, kappa, also called B3 variant N325L) heavy: not shown light: DIVMTQSPLSLPVTPGEPASISCQASESLVHSNRNTYLHWYLQKPGQSPQLLIYKVSNRFSGVPDRFSGSGSGTDFTLKISRVEAEDVGVYYCSQNTHVPPTFGQGTKVEIERTVAAPSVFIFPPSDEQLKSGTASVVCLLNNFYPREAKVQWKVDNALQSGNSQESVTEQDSKDSTYSLSSTLTLSKADYEKHKVYACEVTHQGLSSPVTKSFNRGEC
37 | 12 | – | 46 | GpH7-B3 A327I / GpL16-k0 (antibody, human IgG1, kappa, also called B3 variant A327I) heavy: not shown light: DIVMTQSPLSLPVTPGEPASISCQASESLVHSNRNTYLHWYLQKPGQSPQLLIYKVSNRFSGVPDRFSGSGSGTDFTLKISRVEAEDVGVYYCSQNTHVPPTFGQGTKVEIERTVAAPSVFIFPPSDEQLKSGTASVVCLLNNFYPREAKVQWKVDNALQSGNSQESVTEQDSKDSTYSLSSTLTLSKADYEKHKVYACEVTHQGLSSPVTKSFNRGEC
